Assay results published in the supplement of paper PMC9732359.
± gives the uncertainty stated by the source.

Assay: protein stability index of a GFP-peptide fusion (yeast GPS) (PSI 1-4); higher = more stable; sorted into four equal gates, so the index is relative within each strain
How it was run: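 Plasmids isolated from each sorting gate were PCR-amplified and Illumina-sequenced, and barcodes assigned the reads to strains. The gates, four of equal size, were set by GFP/Cherry fluorescence ratio on mid-log cultures in leucine-free medium. These cultures were yeast carrying a pooled library of tiled 17-residue yeast protein peptides fused downstream of GFP on a plasmid that also expresses Cherry. The protein stability index is the sum of every gate's read frequency times its gate number.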

RNSKLLNTKSIQIDEET [MCD1]
protein stability index (doa10∆): 3.21 ± 0.23 | protein stability index (pdr5∆): 2.63 ± 0.084 | protein stability index (san1∆): 3.18 ± 0.061 | protein stability index (ubr1∆): 3.33 ± 0.12

RNSNPENTVGLISGAGA [RPN10]
protein stability index (doa10∆): 2.93 ± 0.11 | protein stability index (pdr5∆): 2.81 ± 0.074 | protein stability index (san1∆): 2.6 ± 0.067 | protein stability index (ubr1∆): 2.06 ± 0.069

RNSTRSSGFNEDIVGAL [REC8]
protein stability index (pdr5∆): 3.58 ± 0.21

RNVGKTLVNKSTGLKNA [RPS1B]
protein stability index (doa10∆): 2.81 ± 0.098 | protein stability index (pdr5∆): 2.72 ± 0.097 | protein stability index (san1∆): 2.59 ± 0.12 | protein stability index (ubr1∆): 2.96 ± 0.086

RNVGKTLVNKSTGLKSA [RPS1A]
protein stability index (doa10∆): 2.81 ± 0.098 | protein stability index (pdr5∆): 2.72 ± 0.097 | protein stability index (san1∆): 2.59 ± 0.12 | protein stability index (ubr1∆): 2.96 ± 0.086

RNVTKGDIVRMLETAGF [SMC3]
protein stability index (doa10∆): 2.81 ± 0.099 | protein stability index (pdr5∆): 3.07 ± 0.12 | protein stability index (san1∆): 2.76 ± 0.1 | protein stability index (ubr1∆): 3.19 ± 0.07

RPDGVHVINVGKTWEKL [RPS0A]
protein stability index (doa10∆): 3.33 ± 0.12 | protein stability index (pdr5∆): 3.41 ± 0.15 | protein stability index (san1∆): 3.4 ± 0.13 | protein stability index (ubr1∆): 3.04 ± 0.081

RPDIVHTVFTSVNKNKR [RPL4A]
protein stability index (doa10∆): 1.26 ± 0.088 | protein stability index (pdr5∆): 1.46 ± 0.11 | protein stability index (san1∆): 1.24 ± 0.17 | protein stability index (ubr1∆): 1.4 ± 0.12

RPEQLSNIIHDESDTIS [SNF6]
protein stability index (doa10∆): 1.82 ± 0.09 | protein stability index (pdr5∆): 2.58 ± 0.063 | protein stability index (san1∆): 2.02 ± 0.11 | protein stability index (ubr1∆): 2.32 ± 0.061

RPFGVALLIAGHDADDG [PUP2]
protein stability index (doa10∆): 1.66 ± 0.16 | protein stability index (pdr5∆): 2.66 ± 0.21 | protein stability index (ubr1∆): 2.6 ± 0.14

RPLPQWIRLRTNNTIRY [RPL39]
protein stability index (doa10∆): 1.85 ± 0.056 | protein stability index (pdr5∆): 1.81 ± 0.054 | protein stability index (san1∆): 1.5 ± 0.067 | protein stability index (ubr1∆): 1.62 ± 0.052

RPNLPTHNFKLSGVSNS [RGR1]
protein stability index (doa10∆): 1.72 ± 0.13 | protein stability index (pdr5∆): 1.49 ± 0.062 | protein stability index (san1∆): 1.85 ± 0.088 | protein stability index (ubr1∆): 2.12 ± 0.054

RQCFREKANDIGFHKYR [RPS29B]
protein stability index (doa10∆): 3.34 ± 0.15 | protein stability index (pdr5∆): 3.35 ± 0.13 | protein stability index (san1∆): 2.96 ± 0.1 | protein stability index (ubr1∆): 2.88 ± 0.1

RQQQENSSKIITLDLSN [SMC1]
protein stability index (doa10∆): 3.22 ± 0.11 | protein stability index (pdr5∆): 3.35 ± 0.066 | protein stability index (san1∆): 3.18 ± 0.066 | protein stability index (ubr1∆): 3.18 ± 0.061

RRAAYGVVRYVMESGAK [RPS3]
protein stability index (doa10∆): 1.5 ± 0.1 | protein stability index (pdr5∆): 1.83 ± 0.13 | protein stability index (ubr1∆): 1.84 ± 0.094

RRILPKPSRTSRQVQKR [RPS7A]
protein stability index (pdr5∆): 3.44 ± 0.15 | protein stability index (san1∆): 2.74 ± 0.1 | protein stability index (ubr1∆): 3.35 ± 0.14

RRISSMPGGYFHSEISP [YAR002W/NUP60]
protein stability index (doa10∆): 2.27 ± 0.14 | protein stability index (pdr5∆): 1.89 ± 0.11 | protein stability index (san1∆): 2.96 ± 0.094 | protein stability index (ubr1∆): 3.17 ± 0.14

RRKFDPSSSENVMTPRE [UBP6]
protein stability index (pdr5∆): 1.99 ± 0.11 | protein stability index (san1∆): 2.45 ± 0.22 | protein stability index (ubr1∆): 2.96 ± 0.23

RRRREGKTDYYQRKRLV [RPL5]
protein stability index (doa10∆): 3.31 ± 0.094 | protein stability index (pdr5∆): 3.26 ± 0.079 | protein stability index (san1∆): 3.13 ± 0.046 | protein stability index (ubr1∆): 3.26 ± 0.035

RRSTPFSKIAEYYRIQK [ESC2]
protein stability index (doa10∆): 2.77 ± 0.071 | protein stability index (pdr5∆): 2.9 ± 0.094 | protein stability index (san1∆): 2.72 ± 0.078 | protein stability index (ubr1∆): 2.94 ± 0.11

RRVPKELAVENPLAKTM [SEC65]
protein stability index (doa10∆): 2.99 ± 0.052 | protein stability index (pdr5∆): 2.93 ± 0.042 | protein stability index (san1∆): 2.47 ± 0.054 | protein stability index (ubr1∆): 1.69 ± 0.026

RSDSYMLHKVLENKADP [RPT6]
protein stability index (doa10∆): 2.65 ± 0.1 | protein stability index (pdr5∆): 2.99 ± 0.1 | protein stability index (san1∆): 2.93 ± 0.056 | protein stability index (ubr1∆): 2.83 ± 0.091

RSEKSTTNAQTKKLIQK [SRP54]
protein stability index (pdr5∆): 2.82 ± 0.13 | protein stability index (san1∆): 2.77 ± 0.15 | protein stability index (ubr1∆): 2.94 ± 0.098

RSGSNAAASLPSKKLKT [RPC82]
protein stability index (doa10∆): 2.71 ± 0.068 | protein stability index (pdr5∆): 2.91 ± 0.078 | protein stability index (san1∆): 2.71 ± 0.05 | protein stability index (ubr1∆): 2.76 ± 0.033

RSIMKNRSVVYFKLDLT [RRI2]
protein stability index (pdr5∆): 1.58 ± 0.22

RSINNLIQEHDSRKNRE [BRN1]
protein stability index (doa10∆): 3.24 ± 0.065 | protein stability index (pdr5∆): 3.37 ± 0.052 | protein stability index (san1∆): 3.15 ± 0.043 | protein stability index (ubr1∆): 3.38 ± 0.053

RSKNLIFNGETLEDALR [GRR1]
protein stability index (doa10∆): 2.92 ± 0.093 | protein stability index (pdr5∆): 2.58 ± 0.054 | protein stability index (san1∆): 2.65 ± 0.057 | protein stability index (ubr1∆): 2.77 ± 0.07

RSMLTVVRNMLALTTLS [YCG1]
protein stability index (doa10∆): 1.91 ± 0.061 | protein stability index (pdr5∆): 1.9 ± 0.067 | protein stability index (san1∆): 2.29 ± 0.065 | protein stability index (ubr1∆): 2.49 ± 0.063

RSRMLPTITLDDVYRPA [SNF5]
protein stability index (doa10∆): 3.12 ± 0.081 | protein stability index (pdr5∆): 3.43 ± 0.085 | protein stability index (san1∆): 3.04 ± 0.075 | protein stability index (ubr1∆): 3.06 ± 0.077

RSTDVWYEASTWIQQFK [ARP7]
protein stability index (pdr5∆): 3.64 ± 0.13 | protein stability index (san1∆): 2.45 ± 0.28 | protein stability index (ubr1∆): 2.97 ± 0.13

RTFRLNECVCTPYNADF [RPO31]
protein stability index (doa10∆): 2.25 ± 0.045 | protein stability index (pdr5∆): 2.4 ± 0.049 | protein stability index (san1∆): 2.77 ± 0.054 | protein stability index (ubr1∆): 2.28 ± 0.065

RTKTPGPGGQAALRALA [RPS14B]
protein stability index (doa10∆): 2.39 ± 0.077 | protein stability index (pdr5∆): 2.55 ± 0.11 | protein stability index (san1∆): 2.23 ± 0.1 | protein stability index (ubr1∆): 2.46 ± 0.08

RTMDDIKDSVREVGTKF [ECM29]
protein stability index (doa10∆): 3.35 ± 0.11 | protein stability index (pdr5∆): 3.47 ± 0.11 | protein stability index (san1∆): 3.27 ± 0.088 | protein stability index (ubr1∆): 3.29 ± 0.072

RTPVPSTLMPGGVDVGP [SNF5]
protein stability index (pdr5∆): 3 ± 0.15 | protein stability index (san1∆): 2.73 ± 0.17

RVADEDANLNDLPETGF [IRR1]
protein stability index (doa10∆): 3 ± 0.095 | protein stability index (pdr5∆): 3.22 ± 0.11 | protein stability index (san1∆): 3.44 ± 0.078 | protein stability index (ubr1∆): 3.13 ± 0.089

RVARRNAARKAEASGEA [RPS9A]
protein stability index (doa10∆): 3.32 ± 0.13 | protein stability index (pdr5∆): 3.44 ± 0.17 | protein stability index (ubr1∆): 3 ± 0.098

RVFRTRFQDGTSVVSIM [SMC2]
protein stability index (doa10∆): 2.07 ± 0.099 | protein stability index (pdr5∆): 1.3 ± 0.1 | protein stability index (ubr1∆): 2.31 ± 0.087

RVHDQPLIWQLLQSSII [POP3]
protein stability index (doa10∆): 1.43 ± 0.062 | protein stability index (pdr5∆): 1.78 ± 0.07 | protein stability index (san1∆): 1.66 ± 0.11 | protein stability index (ubr1∆): 1.7 ± 0.028

RVIKDFKKLNSKNMSKS [YMR153W/NUP53]
protein stability index (doa10∆): 1.95 ± 0.16 | protein stability index (san1∆): 2.64 ± 0.21

RVKDPQWLIMLGICTHL [RIP1]
protein stability index (doa10∆): 2.62 ± 0.064 | protein stability index (pdr5∆): 2.48 ± 0.055 | protein stability index (san1∆): 2.36 ± 0.075 | protein stability index (ubr1∆): 2.91 ± 0.045

RVKIANTSAATVHTATS [SSN2]
protein stability index (doa10∆): 2.86 ± 0.1 | protein stability index (pdr5∆): 2.65 ± 0.051 | protein stability index (san1∆): 2.39 ± 0.071 | protein stability index (ubr1∆): 2.52 ± 0.094

RVLTQDGRVYIGQLMAF [SMB1]
protein stability index (doa10∆): 3.48 ± 0.098 | protein stability index (pdr5∆): 3.26 ± 0.083 | protein stability index (san1∆): 2.63 ± 0.09 | protein stability index (ubr1∆): 3.05 ± 0.041

RVNLSENTPEPDLPALE [SMC4]
protein stability index (doa10∆): 2.26 ± 0.091 | protein stability index (pdr5∆): 2.32 ± 0.074 | protein stability index (san1∆): 3.1 ± 0.086 | protein stability index (ubr1∆): 2.83 ± 0.11

RVWAEYATKRQEAIQQN [PRP8]
protein stability index (doa10∆): 2.37 ± 0.15 | protein stability index (pdr5∆): 2.56 ± 0.1 | protein stability index (san1∆): 2.61 ± 0.1 | protein stability index (ubr1∆): 2.2 ± 0.096

RYADAGNIDTKNNILGS [RRP43]
protein stability index (doa10∆): 3.31 ± 0.062 | protein stability index (pdr5∆): 3.06 ± 0.05 | protein stability index (san1∆): 3.12 ± 0.039 | protein stability index (ubr1∆): 3.04 ± 0.049

RYIWRSLKDLSSLRNQE [RPN3]
protein stability index (doa10∆): 2.77 ± 0.14 | protein stability index (san1∆): 2.85 ± 0.094

RYKFPGQQKIILSKKWG [RPL10]
protein stability index (doa10∆): 2.69 ± 0.22 | protein stability index (ubr1∆): 2.29 ± 0.21

RYKPGTVALREIRRFQK [HHT1]
protein stability index (doa10∆): 3.19 ± 0.11 | protein stability index (pdr5∆): 2.97 ± 0.091 | protein stability index (san1∆): 3.07 ± 0.065 | protein stability index (ubr1∆): 3.07 ± 0.078

RYSRQFINNVLSNPSNQ [GRR1]
protein stability index (doa10∆): 2.28 ± 0.08 | protein stability index (pdr5∆): 2.45 ± 0.082 | protein stability index (san1∆): 1.91 ± 0.1 | protein stability index (ubr1∆): 2.07 ± 0.076

SAAGNKAIPTFSFGKPF [YIL149C/MLP2]
protein stability index (doa10∆): 2.73 ± 0.046 | protein stability index (pdr5∆): 2.86 ± 0.055 | protein stability index (san1∆): 2.96 ± 0.045 | protein stability index (ubr1∆): 2.96 ± 0.034

SAAKASQSRSAKAGLTF [HTA1]
protein stability index (doa10∆): 3.06 ± 0.081 | protein stability index (pdr5∆): 2.96 ± 0.084 | protein stability index (san1∆): 2.98 ± 0.042 | protein stability index (ubr1∆): 3.05 ± 0.034

SAIDVLDPLTKDPVDFV [RPN2]
protein stability index (doa10∆): 3.21 ± 0.088 | protein stability index (pdr5∆): 3.29 ± 0.076 | protein stability index (san1∆): 3.15 ± 0.074 | protein stability index (ubr1∆): 3.12 ± 0.096
